Measured values as given in patent publication US8183228B2, “Anticoagulant antithrombotic dual inhibitors comprising a biotin label” (MSD OSS B.V. Netherlands, priority 2005, dated 2012).
Counter-ions that a name gives are not always drawn.

Experiment: Pharmacokinetics - neutralization experiment with avidin i.v. in rat
Type: in vivo
Settings: s.c. 500 nmol/kg
Procedure: 3.2 Pharmacokinetics—Neutralization Experiment:
Rats were treated with compound 10, 12, or 27 at a dose of 100 nmol/kg s.c. At t=1 h, a blood sample was taken and 10 mg/kg of Avidin (from egg white, Sigma) was administered i.v. to the rats treated with compound 10 or 12. Blood was sampled at 0.5-1-3-6 and 23 hours subsequently. The blood was treated as described in the pharmacokinetic experiment and the concentration of the samples was determined by measuring the (residual) anti-Xa activity. (FIG. 8)
In a separate experiment compound 10, 17 or 26 was administered at a dose of 500 nmol/kg s.c. after which blood was collected at 24 hours. Then 10 mg/kg avidin was administered intravenously and blood was collected at 25 and 26 hours. (FIG. 9)

For `CO[C@H]1O[C@H](COS(=O)(=O)O)[C@@H](O[C@@H]2O[C@@H](C(=O)O)[C@@H](O[C@H]3O[C@H](COS(=O)(=O)O)[C@@H](O[C@@H]4O[C@H](C(=O)O)[C@@H](O[C@H]5O[C@H](COS(=O)(=O)O)[C@@H](OCCOCCOCCOCCNC(=O)[C@H](CCCCN(C)C(=O)CCCC[C@@H]6SC[C@@H]7NC(=O)N[C@@H]76)NC(=O)COCCOCCOCCOCCNC(=O)c6cccc(S(=O)(=O)N[C@@H](Cc7ccc(OCCCCC8CCNCC8)cc7)C(=O)O)c6)[C@H](OC)[C@H]5OC)[C@H](OC)[C@H]4OC)[C@H](OS(=O)(=O)O)[C@H]3OS(=O)(=O)O)[C@H](OC)[C@H]2OC)[C@H](OS(=O)(=O)O)[C@H]1OS(=O)(=O)O` [Compound 26, sodium salt], the level at time molar at 24 h (plasma, sc, 24 h, before avidin, read-out: Plasma level T = 24 h) was 1070 ± 58 nM, the “Plasma level T = 26 h” value (2 hours after avidin 10 mg/kg i.v. at t = 24 h) was 361 ± 26 nM and the “% reduction of plasma concentration” value (within 2 hours after avidin 10 mg/kg i.v. at t = 24 h, sodium salt) was 66%.
